Where “and” joins values, the source holds several entries; their conditions need not be identical. Identical values can stand only once.
T1: Plasma antichymotrypsin (ACT) (UniProt P01011 24-423)
T1 construct: also called plasma ACT
T1 sequence (looked up): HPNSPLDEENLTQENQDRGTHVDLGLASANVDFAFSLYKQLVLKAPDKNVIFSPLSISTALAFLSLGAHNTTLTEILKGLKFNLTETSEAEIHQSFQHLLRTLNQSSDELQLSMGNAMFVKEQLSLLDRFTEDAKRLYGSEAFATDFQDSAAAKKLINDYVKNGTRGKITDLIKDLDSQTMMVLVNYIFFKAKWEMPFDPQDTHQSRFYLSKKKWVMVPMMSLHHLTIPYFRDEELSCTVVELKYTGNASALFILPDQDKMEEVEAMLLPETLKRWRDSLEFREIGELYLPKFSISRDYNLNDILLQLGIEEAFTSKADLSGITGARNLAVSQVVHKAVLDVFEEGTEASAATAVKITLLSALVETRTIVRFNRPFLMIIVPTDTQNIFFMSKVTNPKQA


How the values were obtained:
Human Factor B = Human Factor B (human, UniProt P00751 26-764); assay: cell-based or functional assay
Sequence of Human Factor B (P00751 26-764 limits assumed): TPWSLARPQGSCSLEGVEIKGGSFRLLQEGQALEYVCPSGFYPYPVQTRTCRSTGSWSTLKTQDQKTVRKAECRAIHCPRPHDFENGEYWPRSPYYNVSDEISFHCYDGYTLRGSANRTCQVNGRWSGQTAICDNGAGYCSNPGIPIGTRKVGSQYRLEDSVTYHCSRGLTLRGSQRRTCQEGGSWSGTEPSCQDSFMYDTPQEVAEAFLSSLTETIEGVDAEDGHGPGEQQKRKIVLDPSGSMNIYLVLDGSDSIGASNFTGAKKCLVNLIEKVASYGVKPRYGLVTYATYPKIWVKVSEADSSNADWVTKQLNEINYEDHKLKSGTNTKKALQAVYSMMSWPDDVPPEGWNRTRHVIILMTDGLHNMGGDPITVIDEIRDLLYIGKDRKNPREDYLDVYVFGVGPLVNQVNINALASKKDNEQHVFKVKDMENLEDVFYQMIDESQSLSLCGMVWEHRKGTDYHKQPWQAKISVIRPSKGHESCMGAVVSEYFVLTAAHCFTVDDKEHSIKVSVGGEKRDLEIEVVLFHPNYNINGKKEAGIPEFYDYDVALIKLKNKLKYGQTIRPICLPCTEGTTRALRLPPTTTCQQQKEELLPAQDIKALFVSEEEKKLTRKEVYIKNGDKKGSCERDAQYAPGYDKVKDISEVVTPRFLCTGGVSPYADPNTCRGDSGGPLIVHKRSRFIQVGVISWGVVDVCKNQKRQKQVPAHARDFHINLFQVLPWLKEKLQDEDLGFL

[1] = biological target: T1, Plasma antichymotrypsin (ACT); assay: serpin inhibition of the protease

Row | kapp [1] [M⁻¹ s⁻¹] | fB Cleavage EC50 (Human Factor B) | Binder | also measured
1 | 197 |  | chymase C22S/K40L/F41K/L99N/F173Y/S218L/A226R (enzyme) IIGGTESKPHSRPYMAYLEIVTSNGPSLKCGGFLIRRNFVLTAAHCAGRSITVTLGAHNITEEEDTWQKLEVIKQFRHPKYNTSTNHHDIMLLKLKEKASLTLAVGTLPFPSQFNFVPPGRMCRVAGWGRTGVLKPGSDTLQEVKLRLMDPQACSHYRDFDHNLQLCVGNPRKTKSAFKGDSGGPLLCAGVAQGIVSYGRLDAKPPRVFTRISHYRPWINQILQAN | fB Cleavage, 80% plasma EC50 (Human Factor B): 14 µM
2 |  | 1.94 µM | chymase C22S/F41V/L99W/G151L/F173K/R217S/A226R (enzyme) IIGGTESKPHSRPYMAYLEIVTSNGPSKVCGGFLIRRNFVLTAAHCAGRSITVTLGAHNITEEEDTWQKLEVIKQFRHPKYNTSTWHHDIMLLKLKEKASLTLAVGTLPFPSQFNFVPPGRMCRVAGWGRTGVLKPLSDTLQEVKLRLMDPQACSHKRDFDHNLQLCVGNPRKTKSAFKGDSGGPLLCAGVAQGIVSYGSSDAKPPRVFTRISHYRPWINQILQAN | 
3 |  | 6.37 µM | chymase C22S/K192R/A226R (enzyme) IIGGTESKPHSRPYMAYLEIVTSNGPSKFCGGFLIRRNFVLTAAHCAGRSITVTLGAHNITEEEDTWQKLEVIKQFRHPKYNTSTLHHDIMLLKLKEKASLTLAVGTLPFPSQFNFVPPGRMCRVAGWGRTGVLKPGSDTLQEVKLRLMDPQACSHFRDFDHNLQLCVGNPRKTKSAFRGDSGGPLLCAGVAQGIVSYGRSDAKPPRVFTRISHYRPWINQILQAN | 
4 |  | 8.06 µM | chymase C22S/F41V/L99H/G151R/F173L/Y215R/R217T/A226R (enzyme) IIGGTESKPHSRPYMAYLEIVTSNGPSKVCGGFLIRRNFVLTAAHCAGRSITVTLGAHNITEEEDTWQKLEVIKQFRHPKYNTSTHHHDIMLLKLKEKASLTLAVGTLPFPSQFNFVPPGRMCRVAGWGRTGVLKPRSDTLQEVKLRLMDPQACSHLRDFDHNLQLCVGNPRKTKSAFKGDSGGPLLCAGVAQGIVSRGTSDAKPPRVFTRISHYRPWINQILQAN | 
5 |  | 1.02 µM | chymase C22S/L99Y/F173Y/K192R/S218L/A226R (enzyme) IIGGTESKPHSRPYMAYLEIVTSNGPSKFCGGFLIRRNFVLTAAHCAGRSITVTLGAHNITEEEDTWQKLEVIKQFRHPKYNTSTYHHDIMLLKLKEKASLTLAVGTLPFPSQFNFVPPGRMCRVAGWGRTGVLKPGSDTLQEVKLRLMDPQACSHYRDFDHNLQLCVGNPRKTKSAFRGDSGGPLLCAGVAQGIVSYGRLDAKPPRVFTRISHYRPWINQILQAN | 
6 |  | 1.69 µM | chymase C22S/F41R/L99H/G151T/F173Y/Y215K/R217M/A226R (enzyme) IIGGTESKPHSRPYMAYLEIVTSNGPSKRCGGFLIRRNFVLTAAHCAGRSITVTLGAHNITEEEDTWQKLEVIKQFRHPKYNTSTHHHDIMLLKLKEKASLTLAVGTLPFPSQFNFVPPGRMCRVAGWGRTGVLKPTSDTLQEVKLRLMDPQACSHYRDFDHNLQLCVGNPRKTKSAFKGDSGGPLLCAGVAQGIVSKGMSDAKPPRVFTRISHYRPWINQILQAN | 
7 |  | 1.74 µM | chymase C22S/F41I/L99W/G151L/F173K/R217S/A226R (enzyme) IIGGTESKPHSRPYMAYLEIVTSNGPSKICGGFLIRRNFVLTAAHCAGRSITVTLGAHNITEEEDTWQKLEVIKQFRHPKYNTSTWHHDIMLLKLKEKASLTLAVGTLPFPSQFNFVPPGRMCRVAGWGRTGVLKPLSDTLQEVKLRLMDPQACSHKRDFDHNLQLCVGNPRKTKSAFKGDSGGPLLCAGVAQGIVSYGSSDAKPPRVFTRISHYRPWINQILQAN | 
8 |  | 1.15 µM | chymase C22S/L99H/F173Y/K192R/S218L/A226R (enzyme) IIGGTESKPHSRPYMAYLEIVTSNGPSKFCGGFLIRRNFVLTAAHCAGRSITVTLGAHNITEEEDTWQKLEVIKQFRHPKYNTSTHHHDIMLLKLKEKASLTLAVGTLPFPSQFNFVPPGRMCRVAGWGRTGVLKPGSDTLQEVKLRLMDPQACSHYRDFDHNLQLCVGNPRKTKSAFRGDSGGPLLCAGVAQGIVSYGRLDAKPPRVFTRISHYRPWINQILQAN | 
9 |  | 5.62 µM | chymase C22S/L99H/F173I/K192R/Y215K/R217T/S218I/A226R (enzyme) IIGGTESKPHSRPYMAYLEIVTSNGPSKFCGGFLIRRNFVLTAAHCAGRSITVTLGAHNITEEEDTWQKLEVIKQFRHPKYNTSTHHHDIMLLKLKEKASLTLAVGTLPFPSQFNFVPPGRMCRVAGWGRTGVLKPGSDTLQEVKLRLMDPQACSHIRDFDHNLQLCVGNPRKTKSAFRGDSGGPLLCAGVAQGIVSKGTIDAKPPRVFTRISHYRPWINQILQAN | 
10 |  | 3.65 µM | chymase C22S/F41V/L99F/G151R/F173K/R217S/A226R (enzyme) IIGGTESKPHSRPYMAYLEIVTSNGPSKVCGGFLIRRNFVLTAAHCAGRSITVTLGAHNITEEEDTWQKLEVIKQFRHPKYNTSTFHHDIMLLKLKEKASLTLAVGTLPFPSQFNFVPPGRMCRVAGWGRTGVLKPRSDTLQEVKLRLMDPQACSHKRDFDHNLQLCVGNPRKTKSAFKGDSGGPLLCAGVAQGIVSYGSSDAKPPRVFTRISHYRPWINQILQAN | 
11 |  | 7.77 µM and 2.74 µM | chymase C22S/L99H/F173L/K192R/Y215H/R217T/S218V/A226R (enzyme) IIGGTESKPHSRPYMAYLEIVTSNGPSKFCGGFLIRRNFVLTAAHCAGRSITVTLGAHNITEEEDTWQKLEVIKQFRHPKYNTSTHHHDIMLLKLKEKASLTLAVGTLPFPSQFNFVPPGRMCRVAGWGRTGVLKPGSDTLQEVKLRLMDPQACSHLRDFDHNLQLCVGNPRKTKSAFRGDSGGPLLCAGVAQGIVSHGTVDAKPPRVFTRISHYRPWINQILQAN | 
12 |  | 7.77 µM | chymase F41V/L99H/G151V/F173Y/Y215K/R217G/A226R (enzyme) IIGGTECKPHSRPYMAYLEIVTSNGPSKVCGGFLIRRNFVLTAAHCAGRSITVTLGAHNITEEEDTWQKLEVIKQFRHPKYNTSTHHHDIMLLKLKEKASLTLAVGTLPFPSQFNFVPPGRMCRVAGWGRTGVLKPVSDTLQEVKLRLMDPQACSHYRDFDHNLQLCVGNPRKTKSAFKGDSGGPLLCAGVAQGIVSKGGSDAKPPRVFTRISHYRPWINQILQAN | 
13 |  | 3.45 µM | chymase C22S/F41R/L99Y/G151T/F173K/R217S/A226R (enzyme) IIGGTESKPHSRPYMAYLEIVTSNGPSKRCGGFLIRRNFVLTAAHCAGRSITVTLGAHNITEEEDTWQKLEVIKQFRHPKYNTSTYHHDIMLLKLKEKASLTLAVGTLPFPSQFNFVPPGRMCRVAGWGRTGVLKPTSDTLQEVKLRLMDPQACSHKRDFDHNLQLCVGNPRKTKSAFKGDSGGPLLCAGVAQGIVSYGSSDAKPPRVFTRISHYRPWINQILQAN | 
14 |  | 4.33 µM | chymase C22S/F41R/L99G/G151T/F173Y/Y215R/R217M/A226R (enzyme) IIGGTESKPHSRPYMAYLEIVTSNGPSKRCGGFLIRRNFVLTAAHCAGRSITVTLGAHNITEEEDTWQKLEVIKQFRHPKYNTSTGHHDIMLLKLKEKASLTLAVGTLPFPSQFNFVPPGRMCRVAGWGRTGVLKPTSDTLQEVKLRLMDPQACSHYRDFDHNLQLCVGNPRKTKSAFKGDSGGPLLCAGVAQGIVSRGMSDAKPPRVFTRISHYRPWINQILQAN | 
15 | 269 |  | chymase C22S/P38Q/V138I/V183I/L199V/A226R/F228V (enzyme) IIGGTESKPHSRPYMAYLEIVTSNGQSKFCGGFLIRRNFVLTAAHCAGRSITVTLGAHNITEEEDTWQKLEVIKQFRHPKYNTSTLHHDIMLLKLKEKASLTLAVGTLPFPSQFNFVPPGRMCRIAGWGRTGVLKPGSDTLQEVKLRLMDPQACSHFRDFDHNLQLCIGNPRKTKSAFKGDSGGPVLCAGVAQGIVSYGRSDAKPPRVVTRISHYRPWINQILQAN | 
16 | 31200 | 0.265 µM | chymase C22S (enzyme, For all chymase variants: mutation names are in chymotrypsin numbering) IIGGTESKPHSRPYMAYLEIVTSNGPSKFCGGFLIRRNFVLTAAHCAGRSITVTLGAHNITEEEDTWQKLEVIKQFRHPKYNTSTLHHDIMLLKLKEKASLTLAVGTLPFPSQFNFVPPGRMCRVAGWGRTGVLKPGSDTLQEVKLRLMDPQACSHFRDFDHNLQLCVGNPRKTKSAFKGDSGGPLLCAGVAQGIVSYGRSDAKPPAVFTRISHYRPWINQILQAN | fB Cleavage, 64% A2M-depl plasma EC50 (Human Factor B): 1.52 µM; fB Cleavage, 64% plasma EC50 (Human Factor B): 7.88 µM; fB Cleavage, 80% plasma EC50 (Human Factor B): 10.2 µM
17 | 428 |  | chymase C22S/F173Y/D175N/A226R (enzyme, also called MS No. 18) IIGGTESKPHSRPYMAYLEIVTSNGPSKFCGGFLIRRNFVLTAAHCAGRSITVTLGAHNITEEEDTWQKLEVIKQFRHPKYNTSTLHHDIMLLKLKEKASLTLAVGTLPFPSQFNFVPPGRMCRVAGWGRTGVLKPGSDTLQEVKLRLMDPQACSHYRNFDHNLQLCVGNPRKTKSAFKGDSGGPLLCAGVAQGIVSYGRSDAKPPRVFTRISHYRPWINQILQAN | fB Cleavage, 64% A2M-depl plasma EC50 (Human Factor B): 1.65 µM; fB Cleavage, 80% plasma EC50 (Human Factor B): 11.2 µM
18 | 1600 | 0.407 µM | chymase C22S/A190S/A226R (enzyme) IIGGTESKPHSRPYMAYLEIVTSNGPSKFCGGFLIRRNFVLTAAHCAGRSITVTLGAHNITEEEDTWQKLEVIKQFRHPKYNTSTLHHDIMLLKLKEKASLTLAVGTLPFPSQFNFVPPGRMCRVAGWGRTGVLKPGSDTLQEVKLRLMDPQACSHFRDFDHNLQLCVGNPRKTKSSFKGDSGGPLLCAGVAQGIVSYGRSDAKPPRVFTRISHYRPWINQILQAN | 
19 | 1040 | 5.21 µM | chymase C22S/A226R (enzyme) IIGGTESKPHSRPYMAYLEIVTSNGPSKFCGGFLIRRNFVLTAAHCAGRSITVTLGAHNITEEEDTWQKLEVIKQFRHPKYNTSTLHHDIMLLKLKEKASLTLAVGTLPFPSQFNFVPPGRMCRVAGWGRTGVLKPGSDTLQEVKLRLMDPQACSHFRDFDHNLQLCVGNPRKTKSAFKGDSGGPLLCAGVAQGIVSYGRSDAKPPRVFTRISHYRPWINQILQAN | 
20 | 40 | 0.139 µM | chymase C22S/K40L/F41H/L99N/F173Y/D175N/S218L/A226R (enzyme, also called MS No. 16) IIGGTESKPHSRPYMAYLEIVTSNGPSLHCGGFLIRRNFVLTAAHCAGRSITVTLGAHNITEEEDTWQKLEVIKQFRHPKYNTSTNHHDIMLLKLKEKASLTLAVGTLPFPSQFNFVPPGRMCRVAGWGRTGVLKPGSDTLQEVKLRLMDPQACSHYRNFDHNLQLCVGNPRKTKSAFKGDSGGPLLCAGVAQGIVSYGRLDAKPPRVFTRISHYRPWINQILQAN | fB Cleavage, 80% plasma EC50 (Human Factor B): 5.07 µM

Reference: patent US20240117334A1 (VERTEX PHARMACEUTICALS, published 2024)
